Square brackets hold non-standard residues; d marks the D form. Ends that are not written are not given here. * marks the point of attachment. SO3H = sulfate on Tyr (sulfated tyrosine), O=S(=O)(O)*; sY = N[C@@H](Cc1ccc(OS(=O)(=O)O)cc1)C(=O)O; pGlu = O=C1CC[C@@H](C(=O)O)N1
B1: sulfated C-terminal fragment of T. castaneum SK comprising amino acids 5–13 (peptide)
peptide: FDDY(SO3H)GHMRF-NH2
modifications: N-terminus assumed
SMILES: CSCC[C@H](NC(=O)[C@H](Cc1c[nH]cn1)NC(=O)CNC(=O)[C@H](Cc1ccc(OS(=O)(=O)O)cc1)NC(=O)[C@H](CC(=O)O)NC(=O)[C@H](CC(=O)O)NC(=O)[C@@H](N)Cc1ccccc1)C(=O)N[C@@H](CCCNC(=N)N)C(=O)N[C@@H](Cc1ccccc1)C(N)=O
B2: sulfated SK from the migratory locust, Locusta migratoria (peptide)
peptide: [pGlu]LASDDY(SO3H)GHMRF-NH2
SMILES: CSCC[C@H](NC(=O)[C@H](Cc1c[nH]cn1)NC(=O)CNC(=O)[C@H](Cc1ccc(OS(=O)(=O)O)cc1)NC(=O)[C@H](CC(=O)O)NC(=O)[C@H](CC(=O)O)NC(=O)[C@H](CO)NC(=O)[C@H](C)NC(=O)[C@H](CC(C)C)NC(=O)[C@@H]1CCC(=O)N1)C(=O)N[C@@H](CCCNC(=N)N)C(=O)N[C@@H](Cc1ccccc1)C(N)=O
B3: 2011[φ1]wp-1 (peptide)
peptide: YGHMRF-NH2
modifications: ends and bridges not checked
B4: 2053[φ1]wp-4 (peptide)
peptide: GHMRF-NH2
B5: 2052[φ1]wp-3 (peptide)
peptide: HMRF-NH2
B6: 2076[φ1]wp-2 (peptide)
peptide: FDDYGHMR-NH2
modifications: ends and bridges not checked
B7: 1569[φ2]wp-4 (peptide)
peptide: PVD[sY]DRPIMAF-NH2
modifications: N-terminus assumed
SMILES: CC[C@H](C)[C@H](NC(=O)[C@@H]1CCCN1C(=O)[C@H](CCCNC(=N)N)NC(=O)[C@H](CC(=O)O)NC(=O)[C@H](Cc1ccc(OS(=O)(=O)O)cc1)NC(=O)[C@H](CC(=O)O)NC(=O)[C@@H](NC(=O)[C@@H]1CCCN1)C(C)C)C(=O)N[C@@H](CCSC)C(=O)N[C@@H](C)C(=O)N[C@@H](Cc1ccccc1)C(N)=O
B8: 1567[φ1]wp-5 (peptide)
peptide: SPVD[sY]DRPIMAF-NH2
modifications: N-terminus assumed
SMILES: CC[C@H](C)[C@H](NC(=O)[C@@H]1CCCN1C(=O)[C@H](CCCNC(=N)N)NC(=O)[C@H](CC(=O)O)NC(=O)[C@H](Cc1ccc(OS(=O)(=O)O)cc1)NC(=O)[C@H](CC(=O)O)NC(=O)[C@@H](NC(=O)[C@@H]1CCCN1C(=O)[C@@H](N)CO)C(C)C)C(=O)N[C@@H](CCSC)C(=O)N[C@@H](C)C(=O)N[C@@H](Cc1ccccc1)C(N)=O
B9: 1432-2[φ]wp-6 (peptide)
peptide: SPVDYDRPIMAF-NH2
B10: 1678A[φ1]wp-4 (peptide)
peptide: D[sY]RPLQF-NH2
modifications: N-terminus assumed
SMILES: CC(C)C[C@H](NC(=O)[C@@H]1CCCN1C(=O)[C@H](CCCNC(=N)N)NC(=O)[C@H](Cc1ccc(OS(=O)(=O)O)cc1)NC(=O)[C@@H](N)CC(=O)O)C(=O)N[C@@H](CCC(N)=O)C(=O)N[C@@H](Cc1ccccc1)C(N)=O
B11: 1678B[φ1]wp-6 (peptide)
peptide: DG[sY]RPLQF-NH2
modifications: N-terminus assumed
SMILES: CC(C)C[C@H](NC(=O)[C@@H]1CCCN1C(=O)[C@H](CCCNC(=N)N)NC(=O)[C@H](Cc1ccc(OS(=O)(=O)O)cc1)NC(=O)CNC(=O)[C@@H](N)CC(=O)O)C(=O)N[C@@H](CCC(N)=O)C(=O)N[C@@H](Cc1ccccc1)C(N)=O
B12: 1679[φ1]wp-4 (peptide)
peptide: [pGlu]PS[sY]DRDIMSF-NH2
SMILES: CC[C@H](C)[C@H](NC(=O)[C@H](CC(=O)O)NC(=O)[C@H](CCCNC(=N)N)NC(=O)[C@H](CC(=O)O)NC(=O)[C@H](Cc1ccc(OS(=O)(=O)O)cc1)NC(=O)[C@H](CO)NC(=O)[C@@H]1CCCN1C(=O)[C@@H]1CCC(=O)N1)C(=O)N[C@@H](CCSC)C(=O)N[C@@H](CO)C(=O)N[C@@H](Cc1ccccc1)C(N)=O
B13: 1835[φ2]wp-4 (peptide)
peptide: SDD[sY]GHMRF-NH2
modifications: N-terminus assumed
SMILES: CSCC[C@H](NC(=O)[C@H](Cc1c[nH]cn1)NC(=O)CNC(=O)[C@H](Cc1ccc(OS(=O)(=O)O)cc1)NC(=O)[C@H](CC(=O)O)NC(=O)[C@H](CC(=O)O)NC(=O)[C@@H](N)CO)C(=O)N[C@@H](CCCNC(=N)N)C(=O)N[C@@H](Cc1ccccc1)C(N)=O

Each binder was assayed against Tribolium castaneum sulfakinin receptor 1 (T. castaneum).
With B1 the aequorin bioluminescence in CHO-WTA11 cells transfected with the receptor, peptide at 1 μM, % of the response to 1 μM sTrica-SK(5–13) (this peptide is the 100% reference) was 100%.
Work on B2 yielded an aequorin bioluminescence in CHO-WTA11 cells transfected with the receptor, peptide at 1 μM, % of the response to 1 μM sTrica-SK(5–13) of 75%.
For B3, the aequorin bioluminescence in CHO-WTA11 cells transfected with the receptor, peptide at 1 μM, % of the response to 1 μM sTrica-SK(5–13) was 26.3%.
Work on B4 yielded an aequorin bioluminescence in CHO-WTA11 cells transfected with the receptor, peptide at 1 μM, % of the response to 1 μM sTrica-SK(5–13) of 13.3%.
Binder B5 has an aequorin bioluminescence in CHO-WTA11 cells transfected with the receptor, peptide at 1 μM, % of the response to 1 μM sTrica-SK(5–13) of 43.4%.
Work on B6 yielded an aequorin bioluminescence in CHO-WTA11 cells transfected with the receptor, peptide at 1 μM, % of the response to 1 μM sTrica-SK(5–13) of 25.8%.
In the case of B7, the aequorin bioluminescence in CHO-WTA11 cells transfected with the receptor, peptide at 1 μM, % of the response to 1 μM sTrica-SK(5–13) is reported as 6.2%.
In the case of B8, the aequorin bioluminescence in CHO-WTA11 cells transfected with the receptor, peptide at 1 μM, % of the response to 1 μM sTrica-SK(5–13) is reported as 23.6%.
Work on B9 yielded an aequorin bioluminescence in CHO-WTA11 cells transfected with the receptor, peptide at 1 μM, % of the response to 1 μM sTrica-SK(5–13) of 16.4%.
For B10, the aequorin bioluminescence in CHO-WTA11 cells transfected with the receptor, peptide at 1 μM, % of the response to 1 μM sTrica-SK(5–13) was 40.8%.
B11 showed an aequorin bioluminescence in CHO-WTA11 cells transfected with the receptor, peptide at 1 μM, % of the response to 1 μM sTrica-SK(5–13) of 28.5%.
With B12 the aequorin bioluminescence in CHO-WTA11 cells transfected with the receptor, peptide at 1 μM, % of the response to 1 μM sTrica-SK(5–13) was 16.5%.
In the case of B13, the aequorin bioluminescence in CHO-WTA11 cells transfected with the receptor, peptide at 1 μM, % of the response to 1 μM sTrica-SK(5–13) is reported as 58.2%.

The binders below were run against Tribolium castaneum sulfakinin receptor 2 (T. castaneum).
Binder B1 has an aequorin bioluminescence in CHO-WTA11 cells transfected with the receptor, peptide at 1 μM, % of the response to 1 μM sTrica-SK(5–13) (this peptide is the 100% reference) of 100%.
With B2 the aequorin bioluminescence in CHO-WTA11 cells transfected with the receptor, peptide at 1 μM, % of the response to 1 μM sTrica-SK(5–13) was 79.9%.
B3 was tested, and the aequorin bioluminescence in CHO-WTA11 cells transfected with the receptor, peptide at 1 μM, % of the response to 1 μM sTrica-SK(5–13) was 21.2%.
In the case of B4, the aequorin bioluminescence in CHO-WTA11 cells transfected with the receptor, peptide at 1 μM, % of the response to 1 μM sTrica-SK(5–13) is reported as 44.6%.
B5 gave an aequorin bioluminescence in CHO-WTA11 cells transfected with the receptor, peptide at 1 μM, % of the response to 1 μM sTrica-SK(5–13) of 33.4%.
B6 gave an aequorin bioluminescence in CHO-WTA11 cells transfected with the receptor, peptide at 1 μM, % of the response to 1 μM sTrica-SK(5–13) of 19.7%.
B7 showed an aequorin bioluminescence in CHO-WTA11 cells transfected with the receptor, peptide at 1 μM, % of the response to 1 μM sTrica-SK(5–13) of 13.4%.
With B8 the aequorin bioluminescence in CHO-WTA11 cells transfected with the receptor, peptide at 1 μM, % of the response to 1 μM sTrica-SK(5–13) was 33.7%.
B9 gave an aequorin bioluminescence in CHO-WTA11 cells transfected with the receptor, peptide at 1 μM, % of the response to 1 μM sTrica-SK(5–13) of 11.2%.
B10 was tested, and the aequorin bioluminescence in CHO-WTA11 cells transfected with the receptor, peptide at 1 μM, % of the response to 1 μM sTrica-SK(5–13) was 32.6%.
B11 gave an aequorin bioluminescence in CHO-WTA11 cells transfected with the receptor, peptide at 1 μM, % of the response to 1 μM sTrica-SK(5–13) of 19.9%.
With B12 the aequorin bioluminescence in CHO-WTA11 cells transfected with the receptor, peptide at 1 μM, % of the response to 1 μM sTrica-SK(5–13) was 16.6%.
Binder B13 has an aequorin bioluminescence in CHO-WTA11 cells transfected with the receptor, peptide at 1 μM, % of the response to 1 μM sTrica-SK(5–13) of 41.4%.

Biological target: Tribolium castaneum sulfakinin receptor 1 (T. castaneum)
Remark: another data set of the same source
B1 was tested, and the EC50 of aequorin bioluminescence (Ca2+) in CHO-WTA11 cells (Gα16) transfected with the receptor, peptide 1 fM to 1 μM was 0.0995 nM.
Work on B2 yielded an EC50 of aequorin bioluminescence (Ca2+) in CHO-WTA11 cells (Gα16) transfected with the receptor, peptide 1 fM to 1 μM of 16.8 nM.

Biological target: Tribolium castaneum sulfakinin receptor 2 (T. castaneum)
Remark: another data set of the same source
Work on B1 yielded an EC50 of aequorin bioluminescence (Ca2+) in CHO-WTA11 cells (Gα16) transfected with the receptor, peptide 1 fM to 1 μM of 0.524 nM.
B2 gave an EC50 of aequorin bioluminescence (Ca2+) in CHO-WTA11 cells (Gα16) transfected with the receptor, peptide 1 fM to 1 μM of 776 nM.

Biological target: Tribolium castaneum sulfakinin receptor 1 (T. castaneum)
Remark: another data set of the same source
In the case of B1, the EC50 of aequorin bioluminescence (Ca2+) in CHO-PAM28 cells (no Gα16) transfected with the receptor is reported as 0.0585 nM.

Biological target: Tribolium castaneum sulfakinin receptor 2 (T. castaneum)
Remark: another data set of the same source
Work on B1 yielded an EC50 of aequorin bioluminescence (Ca2+) in CHO-PAM28 cells (no Gα16) transfected with the receptor of 1.61 nM.

Biological target: Tribolium castaneum sulfakinin receptor 1 (T. castaneum)
Remark: another data set of the same source
For B1, the EC50 of CRE-luciferase bioluminescence (cAMP) in HEK293T cells cotransfected with the receptor was 0.0049 nM.

Biological target: Tribolium castaneum sulfakinin receptor 2 (T. castaneum)
Remark: another data set of the same source
In the case of B1, the EC50 of CRE-luciferase bioluminescence (cAMP) in HEK293T cells cotransfected with the receptor is reported as 1.4 nM.
